The text below walks through data of patent US20130123173A1, “CREATION OF OXIDATION-RESISTANT HDL MIMETIC PEPTIDES” (The Regents of the University of California, priority 2010, published 2013).

Data set [1] is described as follows: α-helical content (secondary structure) of peptides with and without acrolein. The class given is physicochemical. The settings on record: for α-helical content: 10 mM phosphate buffer (pH=7.4); for α-helical content, comparison in words: FIG. 2 legend, vs ATI-5261 control or vs untreated peptide. The procedure: FIG. 2 provides data showing the % α-helical content of ATI-5261 and the K5, 25→R analog peptide. Peptides in 10 mM phosphate buffer (pH=7.4) were analyzed. […] Biosyn. denotes source (commercial vendor) used to synthesize peptides (same for all peptides).

The nature of data set [2]: SDS-PAGE analysis of peptides following exposure to acrolein (cross-linking). In kind it is physicochemical. The settings on record: 20-fold molar excess of acrolein, 37° C., 20 h. The procedure: Peptides ATI-5261 and K5,25 were exposed to 20-fold molar excess of acrolein or buffer alone and incubated 37° C. for 20 h. Lane 1—MW standards (kDa); lane 2, K5,25→R peptide exposed to acrolein; Lane3, ATI-5261 exposed to acrolein; lane 4, K5, 25→R peptide buffer control; Lane 5, ATI-5261 buffer control. Peptide loads were 3 μg/well.

The test system of data set [3] is J774 macrophages. Kind of data set: Cholesterol efflux from cAMP-treated J774 macrophages (ABCA1 cholesterol efflux). In kind it is cell-based. The settings on record: for change of cholesterol efflux activity upon exposure to acrolein: excess molar acrolein; for cholesterol efflux activity: no oxidant exposure, lipid-free peptides, cAMP-treated J774 macrophages. The procedure:
FIG. 1 provides data showing the sensitivity of ABCA1 efflux peptide ATI-5261 and an analog to acrolein. ATI-5261 was engineered with arginine (R) in place of lysine (K) at positions 5 and 25 (K5, 25/R), creating an oxidation-resistant analog. […] Panel B. Dependence of cholesterol efflux on ABCA1 expression, as judged with and without cAMP (no oxidant exposure). Peptides were used in lipid-free form at […]. Panel C. Peptides were incubated (37° C., 24 h) with acrolein at a molar ratio of 50:1 (acrolein:peptide) in the presence of DTPA; excess aminoguanidine was added to terminate reactions and peptides dialyzed to PBS. Cholesterol efflux (8 h) was assessed using cAMP-treated J774 cells and peptides at 2 mg/ml. Values are % of control efflux with peptides not treated with acrolein.
Panel D. Impact of varying molar ratio of acrolein relative to ATI-5261 on cholesterol efflux from cAMP treated J774 cells.
Suitable cholesterol efflux assays are described in, e.g., Bielicki, J. K and Oda, M. N., Biochemistry, 41:2089-2096 (2002); Jia et al., Biochem. Biophys. Res. Common., 297:206-213 (2002). In some embodiments, a polypeptide known to mediate cholesterol efflux (e.g., helix 9/10 of Apo A-I) is used to screen for additional mediators of cholesterol efflux in a cell based assay. For example, cell lines in which cholesterol efflux can be enhanced using a cAMP analog that up-regulates ABCA1 protein expression (e.g., J774 macrophages) can conveniently be used to assess the ability of a polypeptide of the present invention to mediate cholesterol efflux. The cells are incubated with labeled cholesterol (e.g., [^3H]cholesterol) under conditions appropriate for cholesterol uptake by the cells. Thus, cAMP or cAMP analogs (e.g., CPT-cAMP) are incubated with the cells for a suitable time before the initiation of cellular cholesterol efflux, i.e., prior to contacting the cells with a test polypeptide. Measurement of labeled cholesterol appearing in the medium is used to determine the cholesterol efflux mediating activity of the test polypeptide.

The subject of another data set is atherosclerosis. The settings on record: mice fed high-fat western-diet; cited from earlier work.
In data set [4] the test system is J774 macrophages. The conditions noted are these: background statement; cited from earlier work.
Data set [5] has as its system macrophage reverse cholesterol transport. Kind of data set: Macrophage reverse cholesterol transport upon exposure to oxidative stress. In kind it is in vivo. The conditions noted are these: vs ATI-5261.
Another data set addresses ABCA1 (UniProt P41233 1-2261, limits assumed). Kind of data set: cell-based or functional assay.

“Also recorded” adds a separate entry of the source.

Chain of ABCA1 (P41233 whole entry): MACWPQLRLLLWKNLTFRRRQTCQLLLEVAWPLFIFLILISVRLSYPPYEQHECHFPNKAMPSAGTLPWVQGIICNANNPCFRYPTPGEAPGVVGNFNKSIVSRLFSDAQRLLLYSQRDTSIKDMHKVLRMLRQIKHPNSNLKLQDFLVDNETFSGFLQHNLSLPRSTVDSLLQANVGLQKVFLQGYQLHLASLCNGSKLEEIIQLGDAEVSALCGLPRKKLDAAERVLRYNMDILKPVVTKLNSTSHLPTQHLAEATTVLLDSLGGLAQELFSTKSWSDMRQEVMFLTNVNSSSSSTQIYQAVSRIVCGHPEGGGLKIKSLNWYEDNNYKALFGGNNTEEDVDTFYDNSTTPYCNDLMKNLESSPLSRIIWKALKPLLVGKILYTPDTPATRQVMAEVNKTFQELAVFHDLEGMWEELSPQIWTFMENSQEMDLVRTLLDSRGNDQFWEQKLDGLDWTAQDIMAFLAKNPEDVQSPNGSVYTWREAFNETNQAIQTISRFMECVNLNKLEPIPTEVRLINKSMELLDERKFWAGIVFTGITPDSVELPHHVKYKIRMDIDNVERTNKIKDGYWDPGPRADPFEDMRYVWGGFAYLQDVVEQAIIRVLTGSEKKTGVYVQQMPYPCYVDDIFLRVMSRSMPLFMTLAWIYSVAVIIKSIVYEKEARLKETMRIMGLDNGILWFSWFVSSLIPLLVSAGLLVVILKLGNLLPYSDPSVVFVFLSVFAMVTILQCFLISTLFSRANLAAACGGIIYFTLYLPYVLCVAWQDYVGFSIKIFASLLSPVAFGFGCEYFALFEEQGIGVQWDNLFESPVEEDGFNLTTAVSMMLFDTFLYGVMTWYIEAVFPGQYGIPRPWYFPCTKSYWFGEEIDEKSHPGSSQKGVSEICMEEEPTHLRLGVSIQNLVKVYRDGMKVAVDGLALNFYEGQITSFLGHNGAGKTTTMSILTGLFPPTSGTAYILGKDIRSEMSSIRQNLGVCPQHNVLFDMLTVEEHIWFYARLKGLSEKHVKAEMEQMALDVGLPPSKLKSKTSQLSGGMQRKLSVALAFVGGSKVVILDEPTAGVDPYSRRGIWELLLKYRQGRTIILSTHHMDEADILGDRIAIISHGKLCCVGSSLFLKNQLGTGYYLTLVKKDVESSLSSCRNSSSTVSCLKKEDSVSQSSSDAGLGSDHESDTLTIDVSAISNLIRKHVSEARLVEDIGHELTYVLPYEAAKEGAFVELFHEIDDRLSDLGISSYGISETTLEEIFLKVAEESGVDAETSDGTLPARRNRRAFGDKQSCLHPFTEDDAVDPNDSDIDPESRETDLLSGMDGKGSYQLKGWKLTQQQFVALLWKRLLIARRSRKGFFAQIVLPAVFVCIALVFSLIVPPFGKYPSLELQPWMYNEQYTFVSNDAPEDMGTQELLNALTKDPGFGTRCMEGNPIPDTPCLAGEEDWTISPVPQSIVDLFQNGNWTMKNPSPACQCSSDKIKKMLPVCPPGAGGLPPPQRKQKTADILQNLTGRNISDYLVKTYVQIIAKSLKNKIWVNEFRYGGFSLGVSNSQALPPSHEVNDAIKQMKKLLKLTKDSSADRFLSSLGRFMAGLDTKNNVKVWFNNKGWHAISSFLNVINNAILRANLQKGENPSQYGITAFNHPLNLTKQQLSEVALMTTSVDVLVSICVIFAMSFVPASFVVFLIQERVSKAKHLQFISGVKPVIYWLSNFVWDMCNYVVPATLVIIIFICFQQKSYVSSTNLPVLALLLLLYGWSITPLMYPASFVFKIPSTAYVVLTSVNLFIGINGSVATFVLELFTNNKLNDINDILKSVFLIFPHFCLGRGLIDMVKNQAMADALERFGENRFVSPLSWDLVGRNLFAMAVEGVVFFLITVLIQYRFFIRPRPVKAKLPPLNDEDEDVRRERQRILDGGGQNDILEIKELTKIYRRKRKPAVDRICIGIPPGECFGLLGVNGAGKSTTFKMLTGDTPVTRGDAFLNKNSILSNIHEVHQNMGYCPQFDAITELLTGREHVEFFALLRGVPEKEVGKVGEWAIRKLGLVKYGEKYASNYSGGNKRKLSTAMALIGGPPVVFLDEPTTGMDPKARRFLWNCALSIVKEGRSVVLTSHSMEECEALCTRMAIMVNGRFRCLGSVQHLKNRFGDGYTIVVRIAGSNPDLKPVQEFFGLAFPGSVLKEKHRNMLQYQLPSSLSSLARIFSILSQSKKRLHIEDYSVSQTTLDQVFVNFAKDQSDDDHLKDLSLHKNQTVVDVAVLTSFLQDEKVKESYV

The molecule “EVRSKLEEWFAAFREFAEEFLARLKS (synthetic amphipathic alpha helix HDL mimetic peptide ATI-5261 susceptible to oxidation that stimulates ATP binding cassette protein ABCA1-dependent cholesterol efflux based on apolipoprotein AI (ApoA-I) alpha-helical motif) [26-mer prototype/parent HDL mimetic ABCA1 efflux peptide, oxidation susceptible, reference compound]” gave a α-helical content in data set [1] (+Acrolein) of 48.3%. Further, the “α-helical content, comparison in words” value in data set [1] was “significantly lower helical content”. The molecule also gave a α-helical content in data set [1] (no acrolein) of 72.7%. The “cross-linking of the peptide after acrolein treatment” value in data set [2] was “substantial cross-linking”. In addition, in the data set on J774 macrophages [3], the “change of cholesterol efflux activity upon exposure to acrolein” value was “marked decrease in cholesterol efflux activity” and the cholesterol efflux activity result was “stimulated cholesterol efflux (4 h) efficiently”. Besides, in the data set on atherosclerosis, the effect on atherosclerosis result is “reduce substantial atherosclerosis”. Moreover, the “molar potency for ABCA1 cholesterol efflux relative to native apoA-I” value in the data set on J774 macrophages [4] is “nearly the same molar potency as native apoA-I”.
With “EVRSRLEEWFAAFREFAEEFLARLRS [K5,25→R, ATI-5261 with arginine in place of lysine at positions 5 and 25]”, the α-helical content in data set [1] (+Acrolein) was determined as 72.6%; in data set [1] (no acrolein), 56.8%. Besides, in data set [1], the “α-helical content, comparison in words” value was “lower α-helical content compared to the ATI-5261 control; also recorded: increase in α-helical content”. Further, in data set [5], the “macrophage reverse cholesterol transport” value is “greatly improved macrophage reverse cholesterol transport”. In the data set with J774 macrophages [3] (acrolein-treated peptide vs untreated peptide), the “augmentation of cholesterol efflux activity by acrolein” value is on record as about 70%. Moreover, in the data set on J774 macrophages [3], the “change of cholesterol efflux activity upon exposure to acrolein” value was “increased upon exposure to acrolein”. Moreover, the cholesterol efflux activity entry in the data set with J774 macrophages [3] is “stimulated cholesterol efflux (4 h) efficiently”; with J774 macrophages [3] (listed as K→R), “no effect on cholesterol efflux activity”.
For the molecule EVRSKLEEWFAAFREFAEEFLARLKS [ATI-5261], in the data set with ABCA1, the “reduction of cholesterol efflux activity after acrolein exposure, molar acrolein:peptide ratio 5:1” value amounted to 50%; the “reduction of cholesterol efflux activity after acrolein exposure, molar acrolein:peptide ratio 10:1” value came to 70%; the “reduction of cholesterol efflux activity after acrolein exposure, molar acrolein:peptide ratio 20:1” value was 93%.
